The record followed here is patent US11976099B2, “Compositions and methods for treatment of bone associated diseases” (THE NATIONAL INSTITUTE FOR BIOTECHNOLOGY IN THE NEGEV LTD., priority 2016, dated 2024).

In the assay the target is T1, murine c-FMS (Mus musculus, UniProt P09581).
T1 construct: endogenous in cells; host or cells: primary bone marrow derived monocytes from wild-type C57BL6 mice
T1 sequence (P09581 20-977): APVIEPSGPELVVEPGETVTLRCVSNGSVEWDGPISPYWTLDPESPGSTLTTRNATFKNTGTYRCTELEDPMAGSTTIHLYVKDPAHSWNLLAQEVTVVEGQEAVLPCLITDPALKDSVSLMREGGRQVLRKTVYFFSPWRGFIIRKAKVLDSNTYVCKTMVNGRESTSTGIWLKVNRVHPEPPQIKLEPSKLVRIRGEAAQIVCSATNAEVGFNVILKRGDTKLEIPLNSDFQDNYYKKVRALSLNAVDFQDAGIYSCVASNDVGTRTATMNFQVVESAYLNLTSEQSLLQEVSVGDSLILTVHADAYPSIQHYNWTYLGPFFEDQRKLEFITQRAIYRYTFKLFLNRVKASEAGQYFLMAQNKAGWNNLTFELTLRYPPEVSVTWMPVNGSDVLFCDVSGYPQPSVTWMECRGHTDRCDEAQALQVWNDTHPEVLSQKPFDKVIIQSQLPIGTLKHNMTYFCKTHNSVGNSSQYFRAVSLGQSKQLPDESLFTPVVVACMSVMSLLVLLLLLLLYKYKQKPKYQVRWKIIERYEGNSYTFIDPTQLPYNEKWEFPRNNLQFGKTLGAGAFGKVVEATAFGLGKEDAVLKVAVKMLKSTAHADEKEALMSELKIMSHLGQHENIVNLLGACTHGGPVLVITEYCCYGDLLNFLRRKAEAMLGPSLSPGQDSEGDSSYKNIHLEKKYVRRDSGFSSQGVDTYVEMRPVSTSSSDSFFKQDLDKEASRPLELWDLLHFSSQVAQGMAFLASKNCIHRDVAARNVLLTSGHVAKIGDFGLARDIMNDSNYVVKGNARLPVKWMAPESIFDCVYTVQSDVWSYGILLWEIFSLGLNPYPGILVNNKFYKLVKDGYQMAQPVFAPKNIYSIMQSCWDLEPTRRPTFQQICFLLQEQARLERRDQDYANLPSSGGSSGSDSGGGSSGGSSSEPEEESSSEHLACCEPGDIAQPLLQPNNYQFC
Kind of assay: c-FMS phosphorylation assay in BMMs (western blot). The format is cell-based. As to conditions: for c-FMS phosphorylation level: 0.5 nM murine M-CSFWT + 1 μM variant, versus control. As to the method: Phosphorylation assay—The experiment was performed on two cell types, BMMs and human peripheral blood CD14^+ monocytes, as follows: (i) BMMs from wild-type C57BL6 mice were purified by flushing the bone marrow from the femur and tibia as previously described (Levaot, N., Simoncic, P. D., Dimitriou, I.D., Scoffer, A., La Rose, J., Ng, A. H. M. et al. (2011) J. Clin. Invest. 121, 3244-3257). The cells were treated with ACK red cells lysis buffer (ThermoFisher Scientific, USA) and grown in complete α-MEM growth medium (Sigma-Aldrich, USA) containing 10% fetal bovine serum (FBS) (selected to not contain LPS to prevent macrophage differentiation), penicillin, streptomycin and L-glutamine. Recombinant murine M-CSF was added at a concentration of 40 ng/ml (Peprotech, Israel) for three days at 37° C. to induce adhesion and proliferation of monocytes. Then, 7×10^5 cells were transferred into a 6-well plate with complete α-MEM and 20 ng/ml murine M-CSF and RANKL (R&D Systems, USA) for 48 h. (ii) CD 14^+ monocytes (Lonza, Switzerland) were grown in complete α-MEM medium for five days in the presence of human M-CSF (20 ng/mL). Then, 3.5×10^5 cells were transferred to a 24-well plate with complete α-MEM medium, […] human M-CSF (R&D Systems, USA) and 20 ng/ml murine RANKL for 72 h. At this point, the medium was replaced with a starvation medium (α-MEM without FBS) for 4 h. After starvation, the cells were washed with PBS and incubated in a starvation medium containing 0.5 nM murine (BMMs) or human (CD14+) M-CSF and 100 nM (CD14^+ cells) or 1 μM (BMMs) of either M-CSFC31S or M-CSFC31S,M27R for 1 min. To test the phosphorylation levels in the absence of murine M-CSFWT, we incubated 0.5, 5, 10, 50, 1000 and 5000 nM of M-CSFC31S or M-CSFC31S,M27R and 0.5,5.10 nM of human M-CSFWT with the cells. The positive control contained 0.5 nM murine (BMMs) or human (CD14^+) M-CSF, and the negative control was incubated in starvation medium without any added protein. The cells were transferred to ice, and lysis buffer (deoxycholate 0.5%, […], 10 mM NaPO4, 1 mM sodium orthovanadate, 5 mM EDTA, pH 7.4, 5 mM EGTA, pH 7.4, 100 mM NaCl, 2% Triton X-100) was added. […] The images were quantified using ImageJ. The quantified intensity values of the phosphorylated c-FMS for each sample were divided by the total c-FMS intensity, and then by the β-actin expression intensity. […]
To determine whether M-CSFC31S,M27R binds and also antagonizes c-FMS, the phosphorylation of the receptor following incubation with different M-CSF variants was evaluated. […] The cells were lysed, and the expression and phosphorylation levels of c-FMS were evaluated using western blot. C-FMS phosphorylation level was quantified and normalized. […]
(In general: A western blot detects proteins with antibodies after separation by electrophoresis.)

Entries after “also recorded” stand apart in the source; their conditions may differ.

B1: M-CSFM: 158 amino acid M-CSF with cysteine at position 31 replaced by serine (SEQ ID NO: 2) (protein)
chain: EEVSEYCSHMIGSGHLQSLQRLIDSQMETSSQITFEFVDQEQLKDPVCYLKKAFLLVQDIMEDTMRFRDNTPNAIAIVQLQELSLRLKSCFTKDYEEHDKACVRTFYETPLQLLEKVKNVFNETKNLLDKDWNIFSKNCNNSFAECSSQGHERQSEGS
Turning to B1, the c-FMS phosphorylation level entry (BMMs) is given as “increased levels of phosphorylation”.

B2: M-CSFC31S,M27R: M-CSF double mutant containing both C31S and M27R; monomeric, monospecific c-FMS antagonist (protein)
chain: EEVSEYCSHMIGSGHLQSLQRLIDSQRETSSQITFEFVDQEQLKDPVCYLKKAFLLVQDIMEDTMRFRDNTPNAIAIVQLQELSLRLKSCFTKDYEEHDKACVRTFYETPLQLLEKVKNVFNETKNLLDKDWNIFSKNCNNSFAECSSQGHERQSEGS
Turning to B2, the “c-FMS phosphorylation (agonist activity)” value (0.5-5000 nM without murine M-CSF) was “very limited c-FMS phosphorylation at any concentration other than 5 μM; also recorded: did not exhibit phosphorylation capabilities in concentrations lower than 5 μM”. Also, the c-FMS phosphorylation level result (BMMs) is “lower levels of phosphorylated c-FMS”.

B3: M-CSFWT: wild-type human M-CSF, disulfide-bond-linked homodimer which binds and activates c-FMS (protein)
chain: EEVSEYCSHMIGSGHLQSLQRLIDSQMETSCQITFEFVDQEQLKDPVCYLKKAFLLVQDIMEDTMRFRDNTPNAIAIVQLQELSLRLKSCFTKDYEEHDKACVRTFYETPLQLLEKVKNVFNETKNLLDKDWNIFSKNCNNSFAECSSQGHERQSEGS
With B3, the “peak concentration of bell-shaped c-FMS phosphorylation curve” value (BMMs, 1 minute, without murine M-CSF) is given as 5 nM.
